Experimental data taken from patent CN115819563A.
“And” between values parts separate entries of the source, which are not always exact repeats. Identical values can stand only once.

Target: 猪伪狂犬病毒gE蛋白 (on inactivated pseudorabies virus) (pseudorabies virus (PRV))

B1: 抗猪伪狂犬病毒gE蛋白单克隆抗体 (antibody, V domains shown)
VH: EVQLQESAHELVKPGASVKIPCKASGYTFTDYNMHWVKQSLRKSLEWIGDIHPNNGGTIYNQKCMGKATLTVDKSSSTADMELRSLTSDDTAVYSCAREGIHCYGSCYVRYDLDYCRQGTTLTVSS
VL: DTVLTQSSASLAVSLCQRATISCKASQSVDHDGDSYMNWSQQRPSQSSTLLIYAASNLESGIPARFSCSGSRTDFTLNIHPVEEEDAATYYCQQT
OD450nm: 2.59 OD450nm and 2.57 OD450nm and 2.62 OD450nm
